Reference: patent US20230322947A1 (published 2023)

Biological target: T1, cynomolgous CD3 on the cynomolgous T-cell line HSC-F (cynomolgus, UniProt Q95LI8 22-171; Q95LI7 23-181)
T1 chain: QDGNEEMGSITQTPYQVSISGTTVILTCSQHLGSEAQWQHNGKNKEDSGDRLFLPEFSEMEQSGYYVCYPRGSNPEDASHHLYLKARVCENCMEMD
Assay: FACS binding

EC50: 3.54 µg/mL
B1: bsIgG1 huCD3-H3L1×HER2-LFLEDA (bispecific antibody)
heavy 1: EVKLVESGGGLVKPGRSLRLSCAASGFTFNTYAMNWVRQAPGKGLEWVARIRSKYNNYATYYADSVKDRFTISRDDSKSILYLQMNSLKTEDTAMYYCVRHGNFGNSYVSWFAYWGQGTLVTVSS
VL 1: not shown
heavy 2: QVQLVQSGAEVKKPGASVKVSCKASGYTFTNYGISWVRQAPGQGLEWMGWLSAYSGNTIYAQKLQGRVTMTTDTSTTTAYMELRSLRSDDTAVYYCARDRIVVRPDYFDYWGQGTLVTVSS
VL 2: EIVLTQSPATLSLSPGERATLSCRASQSVSSYLAWYQQKPGQAPRLLIYDASNRATGIPARFSGSGSGTDFTLTISSLEPEDFAVYYCQQRSNWPRTFGQGTKVEIK
